From PMC6358683

Key:
[1] = biological target: HA of A/New Caledonia/20/1999 (influenza A virus A/New Caledonia/20/1999) (UniProt Q6WG00)
[2] = biological target: HA of A/mallard/Alberta/35/1976 (influenza A virus A/mallard/Alberta/35/1976); test: BLI

C05 WT (antibody)
HAI, antibody concentration at the endpoint titer; virus A/New Caledonia/20/1999 [1]: 0.2 µg/mL
Kd [2]: 511 nM
koff [2]: 0.0021 s⁻¹
kon [2]: 4100 M⁻¹ s⁻¹
